In article PMC5531254:

Key:
PIH1D1 [1] = molecular target: PIH1D1 (UniProt Q9NWS0); assay: GST pull-down with FLAG-purified MRE11; settings: reference: FLAG MRE11 wild type
PIH1D1 [2] = molecular target: PIH1D1 (UniProt Q9NWS0); assay: anti-FLAG co-IP, MYC blot; settings: reference: FLAG MRE11 wild type

Substance | binding against the reference (PIH1D1 [1]; sites S688,S689) | binding against the reference (PIH1D1 [2]; sites S688,S689) | binding against the reference (PIH1D1 [1]; sites S558,S561) | binding against the reference (PIH1D1 [2]; sites S558,S561)
MRE11 (from UniProt P49959) M3 (S688A/S689A) | weaker | weaker |  | 
MRE11 (from UniProt P49959) M1 (S558A/S561A) |  |  | weaker | weaker
